{"source": "patent US20200069775A1", "about": "“BRAIN OSTEOCALCIN RECEPTOR AND COGNITIVE DISORDERS” (The Trustees of Columbia University in the City of New York, priority 2017, published 2020)", "key": {"[1]": {"test": "Ex vivo dual perfusion of the mouse placenta (maternal-fetal transport)", "type": "in vitro ADME", "method": "Maternal-fetal transport of osteocalcin was monitored using ex vivo dual perfusion of the mouse placenta (Goeden & Bonnin, 2013, Nature Protocols 8:66-74). Osteocalcin (300 ng/ml) was injected on the maternal side through the uterine artery in placentas obtained from WT mice at E14.5, E15.5, and E18.5 of pregnancy (n=3 independent perfusions per age). Osteocalcin transport through the placenta was analyzed by measuring the concentration of osteocalcin present in fetal eluates obtained through the umbilical vein, each time point (1-9) corresponding to a 10 minute collection period (at 5 μl/min). Collection time points (from 10 to 30 min of perfusion) were obtained during materal fluid infusion; time points 4-6 (from 30 to 60 min of perfusion) were obtained during osteocalcin infusion into the maternal uterine artery, whereas for time points 7-9 (from 60 to 90 min of perfusion, respectively) the maternal uterine artery was infused with maternal fluid alone.\nAny influence of maternal osteocalcin on fetal brain development requires that this hormone cross the placenta. This was investigated through an ex vivo dual perfusion system that monitors the transport of substances across the mouse placenta (Bonnin et al., 2011, Nature 472:347-350; Goeden and Bonnin, […], Nature Protocols 8:66-74)."}, "WT mice": {"tested_on": "WT mice", "test": "Contextual Fear Conditioning after acute hippocampal injection", "type": "in vivo, mouse", "method": "FIG. 11. CREB activation by osteocalcin is functionally relevant. Contextual fear conditioning in 3.5 month old mice injected acutely with 10 ng recombinant uncarboxylated osteocalcin 24 hours prior to context exposure. 3 shocks of 0.55 mA were delivered to mice 1 min apart.\nTo determine whether these acute injections and corresponding activation of the CREB pathway are functionally relevant, Contextual Fear Conditioning (CFC), a hippocampus dependent task that assesses long term memory, was performed. Mice were injected acutely in both hemispheres with either PBS or 10 ng recombinant uncarboxylated osteocalcin."}}, "note": "Entries after “also recorded” stand apart in the source; their conditions may differ."}
{"substance": "osteocalcin: Recombinant osteocalcin bacterially produced, cleaved from the GST subunit; completely undercarboxylated at all three sites; full-length mouse osteocalcin (YLGASVPSPDPLEPTREQCELNPACDELSDQYGLKTAYKRIYGITI)", "values": [{"measurement": "transport across the placenta", "setting": "[1]; day 14.5 of gestation, 300 ng/ml through uterine artery", "result": "begins to cross the placenta"}, {"measurement": "transplacental transfer to the fetal circulation", "setting": "[1]; day 15.5 or 18.5 of gestation", "result": "larger transplacental transfer"}, {"measurement": "% freezing on Day 1 (CFC)", "setting": "WT mice; 10 ng injected 24 hours prior to context exposure", "result": "% freezing was the same for both groups"}, {"measurement": "freezing behavior 24 hours after the initial shocks (CFC)", "setting": "WT mice; 10 ng injected acutely in both hemispheres, listed as recombinant uncarboxylated osteocalcin", "result": "increased freezing behavior as compared to controls; also recorded: increased freezing along with hyperexcitability"}]}
